Where no end group is shown, it is not given here.
Legend:
[1] = target: T1, Recombinant protein comprising the whole extracellular part of human ErbB1 (human, UniProt P00533 25-645); assay: SPR (BIAcore 2000), peptide dendrimer immobilized, receptor ECD injected; mean ± SEM
T1 construct: extracellular domain; also called EGF receptor; EGFR
Description: (§1) Binding analyses were performed with the surface plasmon resonance (SPR)-based biosensor instrument BIAcore2000 (BIAcore AB, Uppsala, Sweden), at 25° C. using ready-made HBS-EP buffer (BIAcore AB) as running buffer. Peptides were immobilized on the surface of a CM5 sensor chip (BIAcore AB) using an amine coupling kit (Biosensor AB, Uppsala, Sweden) according to the manufacturer's instructions, at a flow rate of 5 μl/min. Briefly, carboxyl groups on the sensor chip surface were activated by injection of 35 μl activation solution followed by injection of peptide (50 μg/ml peptide in HBS-EP buffer, pH 7.4) until the desired level of immobilized peptide was reached. Unreacted peptide was washed out and unreacted activated groups were blocked by the injection of 35 μl 1 M ethanolamine. The final immobilization response was app. 7000-9000 resonance units (RU). […] ErbB receptor proteins were injected at various concentrations at a flow rate of 20 μl/min, and binding to the peptides immobilized on the chip was measured in real-time. […] Data were analyzed by nonlinear curve fitting using the manufacturer' software. […]
(§2) The binding of three Inherbin peptides to all four members of the ErbB receptor family was determined using surface plasmon resonance (SPR) binding analysis (table 1).

[2] = target: T2, Human ErbB3 extracellular part fused to Fc of human IgG1 (human, UniProt P21860 20-643); assay: SPR (BIAcore 2000), peptide dendrimer immobilized, receptor ECD-Fc injected; mean ± SEM
T2 construct: extracellular domain; also called ErbB3-Fc chimeric protein; not shown: Fc region of human IgG1
Description: (§3) Binding analyses were performed with the surface plasmon resonance (SPR)-based biosensor instrument BIAcore2000 (BIAcore AB, Uppsala, Sweden), at 25° C. using ready-made HBS-EP buffer (BIAcore AB) as running buffer. Peptides were immobilized on the surface of a CM5 sensor chip (BIAcore AB) using an amine coupling kit (Biosensor AB, Uppsala, Sweden) according to the manufacturer's instructions, at a flow rate of 5 μl/min. Briefly, carboxyl groups on the sensor chip surface were activated by injection of 35 μl activation solution followed by injection of peptide (50 μg/ml peptide in HBS-EP buffer, pH 7.4) until the desired level of immobilized peptide was reached. Unreacted peptide was washed out and unreacted activated groups were blocked by the injection of 35 μl 1 M ethanolamine. The final immobilization response was app. 7000-9000 resonance units (RU). A reference surface was generated simultaneously under the same conditions but without peptide injection and used as a blank chip control. ErbB receptor proteins were injected at various concentrations at a flow rate of 20 μl/min, and binding to the peptides immobilized on the chip was measured in real-time. The curve corresponding to the difference between signals on flow cells with immobilized peptide and the signal on the blank flow cell was used for analysis. Each sensorgram consists of an association phase (the first 320 seconds), reflecting binding of the injected receptor to the peptide, and a dissociation phase (app. 300 seconds), during which running buffer is passed over the chip and the bound receptor is being washed off. Data were analyzed by nonlinear curve fitting using the manufacturer' software. The recombinant protein comprising the whole extracellular part of human ErbB1 (also termed the EGF receptor, EGFR) was purchased from Research Diagnostics (Concord, Mass., USA). Recombinant proteins comprising the Fc region of human IgG₁ and the Fc protein fused to the extracellular parts of human ErbB2, ErbB3 or ErbB4 were purchased from R&D Systems Europe (Abingdon, UK).
as §2

[3] = target: T3, Human ErbB2 extracellular part fused to Fc of human IgG1 (human, UniProt P04626 23-652); assay: SPR (BIAcore 2000), peptide immobilized on CM5 chip, receptor protein injected
T3 construct: extracellular domain; also called ErbB2-Fc chimeric protein; not shown: Fc region of human IgG1
Description: as §3, §2

[4] = target: T4, Human ErbB4 extracellular part fused to Fc of human IgG1 (human, UniProt Q15303 26-651); assay: as above
T4 construct: extracellular domain; also called ErbB4-Fc chimeric protein; not shown: Fc region of human IgG1
T4 sequence (looked up): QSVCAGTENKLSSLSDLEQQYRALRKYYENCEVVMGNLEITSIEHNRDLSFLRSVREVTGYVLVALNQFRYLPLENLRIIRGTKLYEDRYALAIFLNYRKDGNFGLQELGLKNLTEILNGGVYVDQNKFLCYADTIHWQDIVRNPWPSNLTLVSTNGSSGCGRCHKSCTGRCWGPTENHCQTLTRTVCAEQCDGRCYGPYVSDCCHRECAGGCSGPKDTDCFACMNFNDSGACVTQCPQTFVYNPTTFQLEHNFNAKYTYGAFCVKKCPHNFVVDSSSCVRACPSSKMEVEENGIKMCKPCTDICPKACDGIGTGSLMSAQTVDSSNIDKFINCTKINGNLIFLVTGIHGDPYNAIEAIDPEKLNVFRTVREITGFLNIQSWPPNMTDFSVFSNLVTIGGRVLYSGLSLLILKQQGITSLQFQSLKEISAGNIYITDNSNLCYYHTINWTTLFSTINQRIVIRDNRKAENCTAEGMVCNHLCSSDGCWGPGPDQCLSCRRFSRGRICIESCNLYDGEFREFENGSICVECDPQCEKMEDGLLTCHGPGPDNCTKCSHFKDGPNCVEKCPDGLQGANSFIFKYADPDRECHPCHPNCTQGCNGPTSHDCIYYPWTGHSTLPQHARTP
Description: as §3, §2

[5] = target: T2, Human ErbB3 extracellular part fused to …; assay: SPR (BIAcore 2000), peptide dendrimer immobilized, receptor ECD-Fc injected; mean ± SEM, SEM 8e-9 in r11c2
Description: as §1, §2

[6] = target: T1, Recombinant protein comprising the …; assay: SPR (BIAcore 2000), peptide dendrimer immobilized, receptor ECD injected; mean ± SEM, SEM 4.9e-9 in r8c2
Description: as §1, §2

[7] = target: T3, Human ErbB2 extracellular part fused to …; assay: SPR (BIAcore 2000), peptide dendrimer immobilized, receptor ECD-Fc injected; mean ± SEM
Description: as §3, §2

[8] = target: T4, Human ErbB4 extracellular part fused to …; assay: as above
Description: as §3, §2

T2 sequence (P21860 20-643): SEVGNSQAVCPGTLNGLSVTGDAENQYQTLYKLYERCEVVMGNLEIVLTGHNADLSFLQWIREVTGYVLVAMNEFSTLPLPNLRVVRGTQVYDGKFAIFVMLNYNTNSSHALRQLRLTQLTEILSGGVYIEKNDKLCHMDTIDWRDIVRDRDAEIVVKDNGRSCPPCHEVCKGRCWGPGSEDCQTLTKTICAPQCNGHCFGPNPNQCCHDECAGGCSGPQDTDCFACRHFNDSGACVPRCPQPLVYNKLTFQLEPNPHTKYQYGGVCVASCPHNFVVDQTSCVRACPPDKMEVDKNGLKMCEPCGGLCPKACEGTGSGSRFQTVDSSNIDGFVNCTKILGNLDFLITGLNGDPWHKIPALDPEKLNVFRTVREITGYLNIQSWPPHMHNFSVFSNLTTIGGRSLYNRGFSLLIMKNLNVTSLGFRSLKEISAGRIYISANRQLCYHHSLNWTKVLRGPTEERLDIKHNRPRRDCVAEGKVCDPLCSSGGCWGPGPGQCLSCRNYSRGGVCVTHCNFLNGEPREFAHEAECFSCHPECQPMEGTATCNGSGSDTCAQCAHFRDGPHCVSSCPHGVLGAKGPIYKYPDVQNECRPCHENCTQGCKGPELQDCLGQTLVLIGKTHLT

LVYNKLTFQLEPNPHTK (also: tetrameric dendrimer: four monomers coupled to a lysine backbone, also called 3DL) [Inherbin3d, tetrameric dendrimer of the Inherbin3 peptide]
Kd [1]: 70 nM
Kd [2]: 17.9 nM
binding result [3]: no binding (tested: 32 µM (concentration given for FIG. 1))
binding result [4]: no binding (tested: 32 µM (concentration given for FIG. 1))

B1: Inherbin1 peptide, tetrameric dendrimer (peptide)
peptide: MLYNPTTYQMDVNPEGK
modifications: also: tetrameric dendrimer: four monomers coupled to a lysine backbone
notes: It was immobilized on a CM5 chip by amine coupling; also called 1DL
Kd [5]: 49 nM
binding result [3]: no binding
binding result [4]: no binding
Kd [6]: 13.6 nM

FVYNPTTFQLEMNFNAK (also: tetrameric dendrimer: four monomers coupled to a lysine backbone, also called 4DL) [Inherbin4 peptide, tetrameric dendrimer]
Kd [1]: 297 nM
Kd [7]: 43 nM
Kd [2]: 19.9 nM
Kd [8]: 90.4 nM
